# Target: ribosomal protein L23 (E. coli (endogenous in A19 cell extract)) (UniProt P0ADZ0)
# Experiment: cross-linking; zero-length EDC crosslinking of resuspended RNCs (ca. 30 nM) made in WT or Δtig A19 E. coli cell-free system (WT: TF 2–15 nM, DnaK 0.5 µM, DnaJ 0.04 µM, GrpE 0.05 µM), +/- puromycin; low-pH SDS-PAGE of the BODIPY-FL nascent chain and Western blots against L23, L24 and L29; percent crosslinking by ImageJ
% EDC crosslinking,normalized % EDC crosslinking (per EDC-reactive residue beyond the ribosomal tunnel core),Substance
27.4%,5.5%,apoHmp_(1–55) ribosome-bound nascent chain (from UniProt P24232 1-55) (domain or fragment; other documents disagree on this pair)
92%,4.6%,apoHmp_(1–140) ribosome-bound nascent chain (from UniProt P24232 1-140) (domain or fragment; other documents disagree on this pair)
85%,2.8%,apoHmp_(1–189) ribosome-bound nascent chain (from UniProt P24232 1-189) (domain or fragment; other documents disagree on this pair)

# Source: PMC11137106
